Substrate in data set [1]: CC(=O)O
As to the kind of experiment: cells, lysate or membranes. The format is cell-based, Homo sapiens. The following applies: Na+ competes with nicotinate for uptake via SLC5A8.

Substrate in data set [2]: O=C(O)C(Cl)Cl
As to the kind of experiment: cells, lysate or membranes. The class given is cell-based, Homo sapiens. The note with it: Na+ competes with nicotinate for uptake via SLC5A8.

B1: SLC5A8 (Homo sapiens) (protein)
chain: MDTPRGIGTFVVWDYVVFAGMLVISAAIGIYYAFAGGGQQTSKDFLMGGRRMTAVPVALSLTASFMSAVTVLGTPSEVYRFGAIFSIFAFTYFFVVVISAEVFLPVFYKLGITSTYEYLELRFNKCVRLCGTVLFIVQTILYTGIVIYAPALALNQVTGFDLWGAVVATGVVCTFYCTLGGLKAVIWTDVFQVGIMVAGFASVIIQAVVMQGGISTILNDAYDGGRLNFWNFNPNPLQRHTFWTIIIGGTFTWTSIYGVNQSQVQRYISCKSRFQAKLSLYINLVGLWAILTCSVFCGLALYSRYHDCDPWTAKKVSAPDQLMPYLVLDILQDYPGLPGLFVACAYSGTLSTVSSSINALAAVTVEDLIKPYFRSLSERSLSWISQGMSVVYGALCIGMAALASLMGALLQAALSVFGMVGGPLMGLFALGILVPFANSIGALVGLMAGFAISLWVGIGAQIYPPLPERTLPLHLDIQGCNSTYNETNLMTTTEMPFTTSVFQIYNVQRTPLMDNWYSLSYLYFSTVGTLVTLLVGILVSLSTGGRKQNLDPRYILTKEDFLSNFDIFKKKKHVLSYKSHPVEDGGTDNPAFNHIELNSDQSGKSNGTRL
As for B1, the Km (in general, the concentration of substrate that gives half-maximal velocity) in data set [1] is 1600 ± 100 µM; in data set [2], 36 ± 7 µM.
